Consider one molecule from patent US20040018571A1.

The assay concerns the target T1, recombinant secreted soluble PSCA with a C-terminal 6xHis and MYC tag (human) (UniProt O43653).
T1 sequence (looked up): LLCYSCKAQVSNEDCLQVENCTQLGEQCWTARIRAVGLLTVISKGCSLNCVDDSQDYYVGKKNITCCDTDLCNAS
In words: SPR (BIAcore), recombinant His/MYC-tagged PSCA immobilized at low density (30 RU), mAb in solution.

B1: anti-PSCA monoclonal antibody 1G8 (ATCC No. HB-12612) (antibody, from another filing, mouse IgG1, V domains shown)
VH: EVQLQQSGAELVRSGASVKLSCTASGFNIKDYYIHWVNQRPDQGLEWIGWIDPENGDTEFVPKFQGKATMTADIFSNTAYLHLSSLTSEDTAVYYCKTGGFWGQGTLVTVSA
VL: QVVLTQSPAIMSASPGEKVTMACSASSSVRFIHWYQQKSGTSPKRWIYDTSKLASGVPTRFSGSGSGTSYSLTISTMEAEDAATYYCQQWSSSPFTFGSGTKLIIK
Take B1: the Kd stood at 1 nM and the kon came out at 168000 M⁻¹ s⁻¹.

The term Kd denotes the equilibrium constant for the complex coming apart. One may read the kon as a measure of how fast the partners come together.
